Assay results: patent US20120060230

What was measured:
Test in all cases: cell_activity
ZFN 28385 (synthetic) = settings: pair with 28386, HEK293
ZFN 28386 (synthetic) = settings: pair with 28385, HEK293
ZFN 28406 (synthetic) = settings: pair with 28405, HEK293
ZFN 28405 (synthetic) = settings: pair with 28406, HEK293
ZFN 15487 (synthetic) = settings: pair with 15486, K562; approx 1% in RAJI
ZFN 25540 (synthetic) = settings: pair with 25539, 10 ug mRNA, primary T cells; background 2.4%
ZFN 28404 (synthetic) = settings: pair with 28403, HEK293
ZFN 15872 (synthetic) = settings: pair with 15873, wt FokI, K562; approx 28% with EL/KK
ZFN 15873 (synthetic) = settings: pair with 15872, wt FokI, K562; approx 28% with EL/KK
ZFN 28403 (synthetic) = settings: pair with 28404, HEK293
ZFN 15910 (synthetic) = settings: pair with 15909, EL/KK FokI, K562; 6 and 11% with wt FokI
ZFN 15507 (synthetic) = settings: pair with 15506, K562
ZFN 18889 (synthetic) = settings: pair with 24859, HLA A2, HEK293; with 18881 approx 3%; A3 allele 10% and 9%
ZFN 24859 (synthetic) = settings: pair with 18889, HLA A2, HEK293; A3 allele 10%
ZFN 15909 (synthetic) = settings: pair with 15910, EL/KK FokI, K562; 6 and 11% with wt FokI
ZFN 16787 (synthetic) = settings: pair with 16783, 10 ug mRNA, primary T cells; background 2.4%
ZFN 18881 (synthetic) = settings: pair with 18889, HLA A2, HEK293; A3 allele 9%
ZFN 15506 (synthetic) = settings: pair with 15507, K562
ZFN 28393 (synthetic) = settings: pair with 28394, HEK293
ZFN 28394 (synthetic) = settings: pair with 28393, HEK293
ZFN 25539 (synthetic) = settings: pair with 25540, 10 ug mRNA, primary T cells; background 2.4%

ACTCTGGGGTAGATGGAGAGCAGTACCT (double strand) [28385 site]
activity (% gene modification) (ZFN 28385 (synthetic)): 39

AGAAGGCTGTGGGCTCCTCAGAGAAAAT (double strand) [28386 site]
activity (% gene modification) (ZFN 28386 (synthetic)): 39

CCACAGCCAGAGCCTCAGCAGGAGCCTG (double strand) [28406 site]
activity (% gene modification) (ZFN 28406 (synthetic)): 34

CGCAAGAGGCTGGAGAGGCTGAGGACTG (double strand) [28405 site]
activity (% gene modification) (ZFN 28405 (synthetic)): 34

CTACTCGGGCCATCGGCGGCTGCCTCGG (double strand) [15487 site]
activity (% gene modification) (ZFN 15487 (synthetic)): 15

CTGACTTTGCATGTGCAAACGCCTTCAA (double strand) [25540 site]
activity (% CD3-negative cells) (ZFN 25540 (synthetic)): 28.1

CTGGATGGGGCTTGGCTGATGGTCAGCA (double strand) [28404 site]
activity (% gene modification) (ZFN 28404 (synthetic)): 64

GAAATAAGGCATACTGGTATTACTAATG (double strand) [15872 site]
activity (ZFN 15872 (synthetic)): 13 % NHEJ

GAGGAGAGCAGGCCGATTACCTGACCCA (double strand) [15873 site]
activity (ZFN 15873 (synthetic)): 13 % NHEJ

GCCCGCGGGCAGTTCTGCGCGGGGGTCA (double strand) [28403 site]
activity (% gene modification) (ZFN 28403 (synthetic)): 64

GCGGGGGAAAGAGAGGAGGAGAGAAGGA (double strand) [15910 site]
activity (ZFN 15910 (synthetic)): 14 % NHEJ

GCTCGAAGGCTTGGTGGCCGGGGCCAGT (double strand) [15507 site]
activity (% gene modification) (ZFN 15507 (synthetic)): 2

GTATGGCTGCGACGTGGGGTCGGACGGG (double strand) [18889 site]
activity (ZFN 18889 (synthetic)): 6 % NHEJ

TCCTCTGGACGGTGTGAGAACCTGGCCC (double strand) [24859 site]
activity (ZFN 24859 (synthetic)): 6 % NHEJ

TCTCCCAGGGTGGTTCAGTGGCAGAATT (double strand) [15909 site]
activity (ZFN 15909 (synthetic)): 14 % NHEJ

TCTCGGAGAATGACGAGTGGACCCAGGA (double strand) [16787 site]
activity (% CD3-negative cells) (ZFN 16787 (synthetic)): 9.4

TTATCTGGATGGTGTGAGAACCTGGCCC (double strand) [18881 site]
activity (ZFN 18881 (synthetic)): 3 % NHEJ

TTGATGTCAGGGAAGATCTCTCTGATGA (double strand) [15506 site]
activity (% gene modification) (ZFN 15506 (synthetic)): 2

TTGATTCGAGACATGGTGTAGGTGAAGC (double strand) [28393 site]
activity (% gene modification) (ZFN 28393 (synthetic)): 49

TTGCGGATCCGGGAGCAGCTTTTCTCCT (double strand) [28394 site]
activity (% gene modification) (ZFN 28394 (synthetic)): 49

TTGTTGCTCCAGGCCACAGCACTGTTGC (double strand) [25539 site]
activity (% CD3-negative cells) (ZFN 25539 (synthetic)): 28.1
